The results in this text go back to paper PMC7835385.

In experiment [1] the target is myosin-7a heavy chain (Drosophila), FLAG-tagged, co-expressed with light chains (Drosophila) (UniProt Q9V3Z6). The experiment in a line: co-purification (FLAG affinity chromatography) with SDS-PAGE densitometry; heavy chain and light chains co-expressed in Sf9; heavy chain captured by its FLAG tag; 150 mM NaCl, 2 mM ATP washes.
In experiment [2] the target is full-length myosin-7a holoenzyme (Drosophila), FLAG-tagged (Drosophila) (UniProt Q9V3Z6). Description: single-molecule mass photometry; 20 nM myosin-7a or M7BP alone, or 20 nM M7BP with 10 nM myosin-7a; 150 mM NaCl, 2 mM MgCl2, 0.1 mM EGTA, 10 mM MOPS, pH 7.2; about 24 C; no actin.
Experiment [3] deals with GFP-myosin-7a holoenzyme (full-length, Drosophila) (Drosophila) (UniProt Q9V3Z6). Description: BLI; Octet RED96; GFP-myosin-7a held by biotinylated GFP antibody on streptavidin sensors; 0-25 nM M7BP in solution; 150 mM NaCl, 2 mM MgCl2, 0.1 mM EGTA, 10 mM MOPS, 1% BSA, pH 7.2; 30 C; no actin. On the technique in general: BLI is a label-free optical method that tracks binding on a fibre tip over time.

Experiment [4] deals with skeletal muscle actin, filamentous (F-actin) (rabbit) (UniProt P68135).
Experiment [5] concerns the target GFP-myosin-7a holoenzyme (full-length, Drosophila) (Drosophila) (UniProt Q9V3Z6). The experiment in a line: single-molecule TIRF motility assay; 20 nM myosin-7a with 20 nM M7BP on surface-immobilised phalloidin-labelled actin filaments; 150 mM KCl, 20 mM MOPS, 5 mM MgCl2, 0.1 mM EGTA, 2 mM ATP, pH 7.4; co-movement and fluorophore counting of moving puncta.

Regarding “Drosophila calmodulin (from UniProt P62152 1-149) (natural protein)”, the stoichiometric ratio of strongly bound calmodulin to ELC/Mlc-c on the heavy chain in experiment [1] is 4.

A word on the stoichiometry N: it is a count of units in the complex or per binding partner. By Kd is commonly meant the free concentration of one partner at which half of the binding sites on the other are occupied at equilibrium, for simple one-to-one binding. Lower therefore signals tighter binding. For the substance “M7BP (myosin-7a binding protein), protein isoform C of CG43340, full length (natural protein)”, the stoichiometry N in experiment [2] was 1. This substance also came in with a Kd in experiment [3] of 6 nM. This substance also displayed a decrease in actin gliding velocity over surface-bound myosin-7a after infusion of 500 nM M7BP, 150 mM KCl in experiment [4] of 50%.

In turn, M7BP-mCherry (natural protein) came in with a stoichiometry N in experiment [5] of 1.
